The text below walks through data of patent US20120083001A1.

Where two headings read alike, the source gives them in different places.

Assay [1] concerns the target β1 adrenergic receptor (rat) (UniProt P18090). The assay can be described thus: cell-based or functional assay.
The target is the same in assay [2]. The assay can be described thus: cell-based or functional assay. This is another data set of the same source.

Sequence of β1 adrenergic receptor (rat) (P18090 whole entry): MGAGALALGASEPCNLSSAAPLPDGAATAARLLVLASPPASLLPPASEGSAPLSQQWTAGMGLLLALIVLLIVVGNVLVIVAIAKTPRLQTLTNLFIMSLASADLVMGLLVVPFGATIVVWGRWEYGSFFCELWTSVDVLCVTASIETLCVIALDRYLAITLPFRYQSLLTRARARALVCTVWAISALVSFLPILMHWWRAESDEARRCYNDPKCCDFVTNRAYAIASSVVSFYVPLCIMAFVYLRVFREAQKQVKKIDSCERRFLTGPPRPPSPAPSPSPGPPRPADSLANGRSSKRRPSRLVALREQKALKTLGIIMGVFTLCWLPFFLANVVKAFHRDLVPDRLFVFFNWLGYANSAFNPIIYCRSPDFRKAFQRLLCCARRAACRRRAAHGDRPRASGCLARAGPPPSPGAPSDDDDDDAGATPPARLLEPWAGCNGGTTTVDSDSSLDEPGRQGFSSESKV

Gαi (C351G) (from UniProt B2RSH2 2-354) gave a Change Level in Current Density [pA/pF] (ISO 30 nM against no ISO) in assay [1] of -9.14 pA/pF. In assay [2], this substance returned a Change Level in Current Density [pA/pF] (ISO 30 nM against no ISO) of -16.4 pA/pF; a Current Change Level [nA] of -0.2 nA; a membrane current value immediately after the pulse, ISO not supplied (whole-cell patch clamp) of -0.2 nA; a membrane current value, ISO supplied (whole-cell patch clamp) of 0.5 nA.
